B1: TPR t1 (parent)
chain: GACCAAUCUGCCCUCAGAGCUCGAGAACAUCUUCGGAUGCAGAGGAGGCAGGCUUCGGUGGCGCGAUAGCGCCAACGUCCUCAACCUCCAAUGCAUCCCACCACAUGAUGAUGCCUGAAGAGCCUUGGUUUUUUG

Variants of: B1
Test: polymerase ribozyme fitness, log enrichment relative to wild type (log ratio); higher = more active; in vitro selection for triplet polymerase activity
Method in brief: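 Only genotypes with ≥10 input reads and ≥1 read per output were kept after Illumina sequencing of input and output libraries. These libraries were PCR-built, transcribed mutants of each subunit of a heterodimeric triplet polymerase ribozyme, each put through one triplicate in vitro selection round with frozen incubation at −7 °C, gel excision of extended constructs, streptavidin-bead capture and RT-PCR. Fitness is a logarithmic ratio of genotype enrichment to wild-type enrichment, from inverse-variance-weighted replicate averages, with the logarithm in base 2.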

Variant | polymerase ribozyme fitness (log ratio)
GACCAAUCUGCCCUCAGAGCUCGAGAACAUCUUCGGAUGCAGAGGAGGCAGGCUUCGGUGGCGCGAUAGCGUCAACGCCCUCAACGUCCAAUGCAUCCCACCACAUGAUGAUGCUUGAAGAGCCUUGGUUUUUUG [C72U U78C C86G C115U] | -1.64
GACCAAUCUGCCCUCAGAGCUCGAGAACAUCUUCGGAUGCAGAGGAGGCAGGCUUCGGUGGCGCGAUAGCGUCAACGUCCUCAAUCUCCAAUGCAUCCCACCACAUGAUGAUGCCUGAAGAGCCUUGGUUUUUUG [C72U C85U] | -1.48
GACCAAUCUGCCCUCAGAGCUCGAGAACAUCUUCGGAUGCAGAGGAGGCAGGCUUCGGUGGCGCGAUAGCGUCAACGUCCUCAACCUCCAAUGCAUCUCACCACAUGAUGAUGCCAGAAGAGCCUUGGUUUUUUG [C72U C98U U116A] | -4.95
GACCAAUCUGCCCUCAGAGCUCGAGAACAUCUUCGGAUGCAGAGGAGGCAGGCUUCGGUGGCGCGAUAGCGUCAACGUCCUCAACCUCCAAUGCAUUCCACCACACGGUGAUGCCUGAAGAGCCUUGGUUUUUUG [C72U C97U U106C A108G] | -6.08
GACCAAUCUGCCCUCAGAGCUCGAGAACAUCUUCGGAUGCAGAGGAGGCAGGCUUCGGUGGCGCGAUAGCGUCAACGUCCUCAACGUCCAAUGCAUCCCACCACAUGAUGAUGCCUGAAGAGCCUGGGUUUUUUG [C72U C86G U126G] | -3.16
GACCAAUCUGCCCUCAGAGCUCGAGAACAUCUUCGGAUGCAGAGGAGGCAGGCUUCGGUGGCGCGAUAGCGUCAACGUCCUCAACCUACAAUGCAUCCCAACACAUGAUGAUGCCUGAAGAGCCUUGGUUUUUUG [C72U C88A C101A] | -1.43
GACCAAUCUGCCCUCAGAGCUCGAGAACAUCUUCGGAUGCAGAGGAGGCAGGCUUCGGUGGCGCGAUAGCGUCAACGUCCUCAACCUCCAAUGCAUCCCAGCACAUGAUGAUGCCUGAAGAGCCUUGGUUUUUUG [C72U C101G] | -2.18
GACCAAUCUGCCCUCAGAGCUCGAGAACAUCUUCGGAUGCAGAGGAGGCAGGCUUCGGUGGCGCGAUAGCGUCAACGUCCUCAACCUCCAAUGCAUCCCACCACAUGAUGAUGCCUGAAAAGCUUUGGUUUUUUG [C72U G120A C124U] | 1.83
GACCAAUCUGCCCUCAGAGCUCGAGAACAUCUUCGGAUGCAGAGGAGGCAGGCUUCGGUGGCGCGAUAGCGUCAACGUCCUCAACCUCCAAUGCAUCCCACCACAUGAUUAUGCCUGAAGAGCCAUGGUUUUUUG [C72U G110U U125A] | -2.31
GACCAAUCUGCCCUCAGAGCUCGAGAACAUCUUCGGAUGCAGAGGAGGCAGGCUUCGGUGGCGCGAUAGCGUCAACGUCCGCAAACUCCAAUGCAUCCCACCACAUGAUGAUGCCUGAAGAGCCUUGGUUUUUUG [C72U U81G C85A] | -3.96
GACCAAUCUGCCCUCAGAGCUCGAGAACAUCUUCGGAUGCAGAGGAGGCAGGCUUCGGUGGCGCGAUAGCGUCAACGUCCUCAACCUCCAAUGCAUCCCACCACAUGAUGAUGUCUGAAGAGUCUUGGUAUUUUA [C72U C114U C123U U130A G135A] | -2.43
GACCAAUCUGCCCUCAGAGCUCGAGAACAUCUUCGGAUGCAGAGGAGGCAGGCUUCGGUGGCGCGAUAGCGUCAACGUCCUCAACAUCCGAUGCAUCCCACCACAUGAUAAUGCCUGAAGAGCCUUGGUUUUUUG [C72U C86A A90G G110A] | -1.38
GACCAAUCUGCCCUCAGAGCUCGAGAACAUCUUCGGAUGCAGAGGAGGCAGGCUUCGGUGGCGCGAUAGCGUCAACGUCCUCAACCUCCAAUGCAUCCCACCACAUGAUAAUGCCUGAAGAGCCUUGGUUUUUUG [C72U G110A] | -1.45
GACCAAUCUGCCCUCAGAGCUCGAGAACAUCUUCGGAUGCAGAGGAGGCAGGCUUCGGUGGCGCGAUAGCGUCAACGUCCUCAACCUCCAAUGCAUCCCACCACAUGAUUAUGCCUGAAGAGCCUUGGUUUUUUG [C72U G110U] | -1.17
GACCAAUCUGCCCUCAGAGCUCGAGAACAUCUUCGGAUGCAGAGGAGGCAGGCUUCGGUGGCGCGAUAGCGUCAACGUCCUCAACCUCCAAUGCAUCUCACCACAUGAUGAUGCCUGAAGAGCCUUGGUUUUUUG [C72U C98U] | -1.53
GACCAAUCUGCCCUCAGAGCUCGAGAACAUCUUCGGAUGCAGAGGAGGCAGGCUUCGGUGGCGCGAUAGCGUCAACGUCCUCAACCUCCAAUGCAUCCCACCACAUGAUGAUGCUUGAAGAGCCUUGGGUUUUUG [C72U C115U U129G] | -2.18
GACCAAUCUGCCCUCAGAGCUCGAGAACAUCUUCGGAUGCAGAGGAGGCAGGCUUCGGUGGCGCGAUAGCGUCAACGUCCUCAACUUCCAAUGCAUCCCACCACAUUAUGAUUCCUGAAGAGCCUUGGUUUUUUG [C72U C86U G107U G113U] | -6.11
GACCAAUCUGCCCUCAGAGCUCGAGAACAUCUUCGGAUGCAGAGGAGGCAGGCUUCGGUGGCGCGAUAGCGUCAACGUCCUCAACCUCCAAUGCAUCCUACCACAUGAUGAUGCCUGAUGAGCCUUGGUUUUUUG [C72U C99U A119U] | -3.8
GACCAAUCUGCCCUCAGAGCUCGAGAACAUCUUCGGAUGCAGAGGAGGCAGGCUUCGGUGGCGCGAUAGCGUCAACGUCCUCAACCUCCAAUGCAUCCCACCACAUGAUGAUGCCUGAACAGCCUUGGUUGUUUG [C72U G120C U131G] | 0.516
GACCAAUCUGCCCUCAGAGCUCGAGAACAUCUUCGGAUGCAGAGGAGGCAGGCUUCGGUGGCGCGAUAGCGUCAACGUCCUCAACCUCCAAUGCAUCCCACCACAUGAUGAUGUCUGAAGAGCCUUGGUUUUUUG [C72U C114U] | -1.89
GACCAAUCUGCCCUCAGAGCUCGAGAACAUCUUCGGAUGCAGAGGAGGCAGGCUUCGGUGGCGCGAUAGCGUCAACGUCCUAAACCUCCAAUGCAUCCCACCACAUGAUGAUGCAUGAAGAGCCUUGGUUUUUUG [C72U C82A C115A] | -1.79

Variant | polymerase ribozyme fitness (log ratio)
GACCAAUCUGCCCUCAGAGCUCGAGAACAUCUUCGGAUGCAGAGGAGGCAGGCUUCGGUGGCGCGAUAGCGUCAACGUCCUCAACCUCCAAUGCAUCCCACAACAUGAUGAUGCCUGAAUAGCCUUGGUGUUUUG [C72U C102A G120U U130G] | -2.46
GACCAAUCUGCCCUCAGAGCUCGAGAACAUCUUCGGAUGCAGAGGAGGCAGGCUUCGGUGGCGCGAUAGCGUCAACGGCCUCAACCUCCAAUGCAUCCCACCACAUGACGAUGCCUGAAGAGCCUUGGUUUUUUG [C72U U78G U109C] | -5.41
GACCAAUCUGCCCUCAGAGCUCGAGAACAUCUUCGGAUGCAGAGGAGGCAGGCUUCGGUGGCGCGAUAGCGUCAACGUCCUCAACCUCCAAUGCAUCCCAGCACAUGAUGAUGCCUUAAGAGCCUUGGUUUUUUG [C72U C101G G117U] | -3.6
GACCAAUCUGCCCUCAGAGCUCGAGAACAUCUUCGGAUGCAGAGGAGGCAGGCUUCGGUGGCGCGAUAGCGUCAACGUCCUCAACCUCCAAUGCAUCCCACAACAUGAUGAUGCCUGAAGAGCCUUGGUUUUUUG [C72U C102A] | -1.81
GACCAAUCUGCCCUCAGAGCUCGAGAACAUCUUCGGAUGCAGAGGAGGCAGGCUUCGGUGGCGCGAUAGCGUCAACGUCCUCAACCUCCAAUGCAUCCCACGACAUGAUGAUGCCUGAAGAGCCUUGGUUUUUUG [C72U C102G] | -5.51
GACCAAUCUGCCCUCAGAGCUCGAGAACAUCUUCGGAUGCAGAGGAGGCAGGCUUCGGUGGCGCGAUAGCGUCAACGUCCUCAACCUCCAAUGAAUCCCACCACAUGAUGAUGCCUGAAGAGCCUUGGUUUUUUG [C72U C94A] | -1.26
GACCAAUCUGCCCUCAGAGCUCGAGAACAUCUUCGGAUGCAGAGGAGGCAGGCUUCGGUGGCGCGAUAGCGUCAACGUCCUCAACCUCCAAUGCAUCCCACCACAUGAUGAUGCCUGAAGAGCCUUGUUUUUUUG [C72U G128U] | -1.48
GACCAAUCUGCCCUCAGAGCUCGAGAACAUCUUCGGAUGCAGAGGAGGCAGGCUUCGGUGGCGCGAUAGCGUCAACGUCCUCAACAUCCAAUGCAUCCCACCCCAUGAUGAUGCCUGAAGAGCCUUGGUUUUUUG [C72U C86A A103C] | -5.58
GACCAAUCUGCCCUCAGAGCUCGAGAACAUCUUCGGAUGCAGAGGAGGCAGGCUUCGGUGGCGCGAUAGCGUCAACUUCCUCAACCUCCAAUGCAUCCCACCACAUGAUGAUGCCUGAAGAGCCUUGGUUUUUUG [C72U G77U] | -0.309
GACCAAUCUGCCCUCAGAGCUCGAGAACAUCUUCGGAUGCAGAGGAGGCAGGCUUCGGUGGCGCGAUAGCGUCAACGUCCUUAACCUCCAAUGCAUCUCACCACAUGAUGAUGCCUGAGGAGCCUUGGUUUUUUG [C72U C82U C98U A119G] | -0.0419
GACCAAUCUGCCCUCAGAGCUCGAGAACAUCUUCGGAUGCAGAGGAGGCAGGCUUCGGUGGCGCGAUAGCGUCAACGUCCUCAACCUCCAAUACAUCCCACUACAUGAUGAUGCCUAAAGAGCCUUGGUUUUUUG [C72U G93A C102U G117A] | -4.25
GACCAAUCUGCCCUCAGAGCUCGAGAACAUCUUCGGAUGCAGAGGAGGCAGGCUUCGGUGGCGCGAUAGCGUCAACGUCCUCAACCUCCAAUGGAUCCCACCGCAUGAUGAUUCCUGAAGAGCCUAGGUUUUUUG [C72U C94G A103G G113U U126A] | -5.45
GACCAAUCUGCCCUCAGAGCUCGAGAACAUCUUCGGAUGCAGAGGAGGCAGGCUUCGGUGGCGCGAUAGCGUCAACGUCCUCAACUUCCAAUGCAUCCCACCACAUGAUGAUGCCUGAAGAGCCUGGGUUUUUUG [C72U C86U U126G] | -2.65
GACCAAUCUGCCCUCAGAGCUCGAGAACAUCUUCGGAUGCAGAGGAGGCAGGCUUCGGUGGCGCGAUAGCGUCAACGUACUCGACCUCCAAUGCAUCCCACCACAUGAUGAUGCGUGAAGAGACUUGGUUGUUUG [C72U C79A A83G C115G C123A U131G] | -4.99
GACCAAUCUGCCCUCAGAGCUCGAGAACAUCUUCGGAUGCAGAGGAGGCAGGCUUCGGUGGCGCGAUAGCGUCAACGUCCUCAACCUCCAAUGCAUCCCACCACAUGAUGAUGCCUGAACAGCCUUGGUUUUUUG [C72U G120C] | 0.644
GACCAAUCUGCCCUCAGAGCUCGAGAACAUCUUCGGAUGCAGAGGAGGCAGGCUUCGGUGGCGCGAUAGCGUCAACGUCCUCAACCUCCAAUGCAUCCCACCACAUGAUGAUGCCUGAAAAGCCUUGGUUUUUUG [C72U G120A] | 0.502
GACCAAUCUGCCCUCAGAGCUCGAGAACAUCUUCGGAUGCAGAGGAGGCAGGCUUCGGUGGCGCGAUAGCGUCAACGUCCUCAACCUCCAAUGCAUCCUACCACAUGAUGAUGCCUGAAGAGCCUUGGUUUUUUG [C72U C99U] | -3.71
GACCAAUCUGCCCUCAGAGCUCGAGAACAUCUUCGGAUGCAGAGGAGGCAGGCUUCGGUGGCGCGAUAGCGUCAACGUCCUCAACGUCCAAUGCAUCCCACCACAUGAUGAUGCCUGAAGAGCCUUGGUUUUUUG [C72U C86G] | -0.742
GACCAAUCUGCCCUCAGAGCUCGAGAACAUCUUCGGAUGCAGAGGAGGCAGGCUUCGGUGGCGCGAUAGCGUCAACGUCCUGAACCUCCAAUGCAUCCCACCACAUGAUUAUGCCUGAAGAGCCUUGGUUUUUUG [C72U C82G G110U] | -2.93
GACCAAUCUGCCCUCAGAGCUCGAGAACAUCUUCGGAUGCAGAGGAGGCAGGCUUCGGUGGCGCGAUAGCGUCAACGUCCUCAACCUCCAAUGCAUCCCACCACAUGAUGAUGCCUGAAGAGCCUUGGUUUUUUC [C72U G135C] | -0.00236
GACCAAUCUGCCCUCAGAGCUCGAGAACAUCUUCGGAUGCAGAGGAGGCAGGCUUCGGUGGCGCGAUAGCGUCAACGUCCUCAACCUCCAAUGCAUCCCACCAUAUGAUGAUGCCUGAAGAGCCUUGGUUUUUUG [C72U C104U] | -0.541

Source: the RNAGym collection of RNA variant scans (doi:10.1073/pnas.2313332121)
